Experimental data taken from patent publication US9885709B2, “Determination of a midregional proadrenomedullin partial peptide in biological fluids for diagnostic purposes, and immunoassays for carrying out such a determination” (B.R.A.H.M.S. GMBH, priority 2003, dated 2018).
“And” between values parts separate entries of the source, which are not always exact repeats. Equal entries are not always repeated.

Test: Stability investigation of mid-proAM in sepsis sera stored at room temperature
Type: in vitro ADME
Description: For examining the question as to whether problems are likely in a measurement of mid-proAM because of insufficient stability of the mid-proAM in a sample or measuring solution, 20 sepsis sera were each measured in a fresh state and after storage for 3 days at room temperature. […] This proven stability of mid-proAM is a major advantage in terms of handling aspects for diagnosis.

mid-proAM: peptide which contains the amino acids 45-92 of pre-proAM or consists thereof (SEQ ID NO:3); endogenous analyte, also synthesized as standard (ELRMSSSYPTGLADVKAGPAQTLIRPQDMKGASRSPEDSSPDAARIRV; listed as Homo sapiens)
immunoreactivity after storage (20 sepsis sera, storage for 3 days at room temperature): virtually unchanged | Change (Day 3 value as percent of Day 0 value, individual sepsis serum, 3 days at room temperature): 92.7% and 95.7% and 109.6% and 102.8% and 96.4% and 99.9% and 106.3% and 102.1% and 95.2% and 110.7% and 80.0% and 105.5% and 102.2% and 103.4% and 89.5% and 94.1% and 98.8% and 98.1% and 97.0% and 95.4% | mid-proAM Day = 3 (individual sepsis serum (one patient), after storage for 3 days at room temperature): 1.0 nmol/l and 1.2 nmol/l and 2.1 nmol/l (2×) and 2.7 nmol/l (2×) and 3.1 nmol/l and 4.9 nmol/l and 5.9 nmol/l and 3.4 nmol/l and 4.6 nmol/l and 2.4 nmol/l and 1.3 nmol/l and 1.5 nmol/l (2×) and 1.8 nmol/l (2×) and 2.0 nmol/l and 6.1 nmol/l and 3.2 nmol/l | mid-proAM Day = 0 (individual sepsis serum (one patient), measured in a fresh state): 1.1 nmol/L and 1.3 nmol/L and 1.9 nmol/L and 2.6 nmol/L and 2.8 nmol/L and 3.1 nmol/L and 4.6 nmol/L and 5.8 nmol/L and 3.6 nmol/L and 4.2 nmol/L and 3.0 nmol/L and 1.2 nmol/L and 1.5 nmol/L and 1.7 nmol/L and 2.0 nmol/L and 2.1 nmol/L and 6.2 nmol/L and 3.3 nmol/L and 2.2 nmol/L and 1.6 nmol/L
